Common to all, as to format: physicochemical
A short description of series [1]: Morphological characterization of porous films by SEM (mean pore diameter, porosity). As for the experimental part: The morphology of the porous films (cryogenically fractured surfaces) was observed by scanning electron microscopy (SEM) using a JEOL JSM-6300 microscope at an accelerating voltage of 5 kV. The SEM samples were Au-sputtered prior to observation. The mean pore diameter (n=100 small pores or 50 large pores) and porosity of the observed morphologies were analyzed using the Sigma Scan Pro software, and statistics were calculated using SPSS 10 software. Statistical significance was determined based on ANOVA (Tukey-Kramer). The area occupied by the pores was calculated for each SEM fractograph using Sigma Scan Pro software in order to evaluate the porosity of the samples. Porosity was determined as the area occupied by the pores divided by the total area.

The nature of series [2]: Encapsulation efficiency of the loaded agent in the films.
Series [3] can be described thus: In vitro drug release from films in PBS at 37° C. (HPLC). The following applies: for time at which the drug was almost fully released: antibiotic-loaded 50:50 PDLGA films, O:A 6:1, 2% drug. As for the experimental part:
Small films of 1.5 cm by 0.5 cm, were immersed in phosphate buffered saline (PBS) at 37° C. for 70 days in order to determine the various drug release kinetics therefrom in four repetitions. The release studies were conducted in closed glass tubes containing 3.0 ml PBS medium. The medium was removed completely at various time points, and at each sampling time fresh medium was introduced. The medium's drug concentration was determined using Jasco High Performance Liquid Chromatography (HPLC) with a UV 2075 plus detector and a reverse phase column kept at 25° C.

Series [4] can be described thus: In vitro HRP release from porous films in PBS at 37° C. (micro BCA). As to the method:
Small 1.5 cm by 2.0 cm films (four samples) were immersed in phosphate-buffered saline (PBS) at 37° C. for 28 days in order to determine the HRP release kinetics from these structures. The release studies were conducted in closed glass tubes containing 2.0 ml PBS medium. The medium was removed (completely) periodically, at each sampling time, and fresh medium was introduced. Sampling was carried out at 0.5, 1, 2, 3, 7, 14, 21 and 28 days.
The HRP concentration of each medium sample was determined using the micro BCA assay method, by measuring absorbance at 562 nm, using a SpectraMax 340 PC^384 plate reader spectrophotometer. Cumulative HRP release profiles were determined relative to the initial amount of HRP in the composite fibers (HRP released during the incubation period+the residue remaining in the fibers). Four repetitions were performed for each sample, and the results are presented as means±one standard deviation.

Where [5] appears, read: drug-loaded 50:50 PDLGA 17.5% w/v film, no surfactant, 28 000 rpm.
[6] abbreviates: drug-loaded film, BSA (1%), 14 000 rpm.
Setting [7] is: drug-loaded film, BSA (1%), 28 000 rpm.
Where [8] appears, read: drug-loaded film, no surfactant, 14 000 rpm.
The mark [9] stands for this setting: as reference formulation A but 0.5% w/w HRP.
Where [10] appears, read: as reference formulation A but 15% w/v polymer.
The mark [11] stands for this setting: as reference formulation A but 25% w/v polymer.
The mark [12] stands for this setting: as reference formulation A but 75/25 PDLGA.
The mark [13] stands for this setting: as reference formulation A but O:A 2:1.
[14] abbreviates: as reference formulation A but O:A 8:1.
The mark [15] stands for this setting: as reference formulation A but polymer initial MW 50 kDa.
[16] abbreviates: as reference formulation A but polymer initial MW 185 kDa.
The mark [17] stands for this setting: HRP film, reference formulation A (1.0% w/w HRP, 17.5% w/v, O:A 4:1, 50/50, 83 kDa).
The mark [18] stands for this setting: as reference formulation A but 2.0% w/w HRP.
[19] abbreviates: as reference formulation A but 20% w/v polymer.
Where [20] appears, read: as reference formulation A but O:A 6:1.
The mark [21] stands for this setting: drug-loaded film, BSA (5%), 28 000 rpm.
Where [22] appears, read: drug-loaded film, BSA (5%), 28 000 rpm, listed as paclitaxel.
Where [23] appears, read: 5% w/v BSA film versus film with no surfactant, 28000 rpm.

Where “and” joins values, the source holds several entries; their conditions need not be identical. Equal values may be shown once.

For the compound Sorbitan monooleate [Span 80], the “Mean pore diameter ± SD” value in series [1] (film from reference formulation B with 5% of the named surfactant, 28000 rpm for 120 seconds) was 1.5 μm and 1.5 ± 0.4 μm.

As for `CC(C)(O/N=C(\C(=O)N[C@@H]1C(=O)N2C(C(=O)[O-])=C(C[n+]3ccccc3)CS[C@H]12)c1csc(N)n1)C(=O)O` [Ceftazidime hydrate, ceftazidime hydrate], the Mean pore diameter in series [1] (setting [5]) amounted to 1.1 ± 0.4 μm; in series [1] (setting [6]) it was 1.5 ± 0.5 μm; in series [1] (setting [7]), 0.7 ± 0.2 μm; in series [1] (setting [8]), 1.8 ± 0.7 μm. The Porosity in series [1] (setting [5]) is listed as 77.6 ± 2.2%; in series [1] (setting [6]) it was 75.4 ± 0.5%; in series [1] (setting [7]), 75.6 ± 0.5%; in series [1] (setting [8]) it was 80.5 ± 3.0%. Further, the Encapsulation efficiency in series [2] (setting [5]) amounted to 37.0 ± 1.9%; in series [2] (setting [6]) it was 58.4 ± 2.3%; in series [2] (setting [7]) it was 50.7 ± 0.5%; in series [2] (setting [8]), 41.7 ± 1.6%. Besides, the “time at which the drug was almost fully released” value in series [3] was ≤ 3 days.

Consider `CC(=O)O.NCc1ccc(S(N)(=O)=O)cc1` [Mafenide acetate, 4-Aminomethylbenzenesulfonamide acetate salt], for which the Mean pore diameter in series [1] (setting [5]) is given as 1.1 ± 0.3 μm; in series [1] (setting [6]) it was 1.9 ± 0.5 μm; in series [1] (setting [7]) it was 0.8 ± 0.2 μm; in series [1] (setting [8]), 2.2 ± 0.9 μm. In addition, the Porosity in series [1] (setting [5]) worked out at 88.1 ± 1.2%; in series [1] (setting [6]), 83.7 ± 2.4%; in series [1] (setting [7]) it was 81.7 ± 2.5%; in series [1] (setting [8]), 81.9 ± 2.6%. The Encapsulation efficiency in series [2] (setting [5]) is 71.3 ± 0.5%; in series [2] (setting [6]), 74.6 ± 4.2%; in series [2] (setting [7]), 78.1 ± 2.1%; in series [2] (setting [8]), 69.6 ± 1.0%. The “time at which the drug was almost fully released” value in series [3] turned out to be 21 days.

Turning to “HRP: Horseradish peroxidase, 44 kDa; served as a surfactant and a protein-type biomolecule model”, the HRP burst release in series [4] (setting [9]) stood at 37%; in series [4] (as reference formulation A but 2% w/w HRP), 74%; in series [4] (setting [10]), 65%; in series [4] (setting [11]) it was 47%; in series [4] (setting [13]), 58%; in series [4] (setting [14]) it was 48%. Moreover, the HRP burst release in series [4] (setting [15]) is recorded as 73%; in series [4] (setting [16]), 42%; in series [4] (reference formulation A: 50/50 PDLGA 83 kDa, 17.5% w/v polymer, 1% w/w HRP, O:A 4:1), 57%. The “HRP burst release rate, 75/25 PDLGA compared to 50/50 PDLGA films” value in series [4] (setting [12]) is given as “little difference in the burst release rates”. In addition, the “Mean large pore diameter” value in series [1] (setting [17]) is reported as 17.1 ± 2.7 μm; in series [1] (setting [9]), 16.0 ± 1.6 μm; in series [1] (setting [18]), 16.0 ± 1.4 μm; in series [1] (setting [19]) it was 16.1 ± 2.3 μm; in series [1] (setting [11]) it was 17.1 ± 1.9 μm; in series [1] (setting [12]), 16.6 ± 3.6 μm. Also, the “Mean large pore diameter” value was 17.3 ± 3.3 μm in series [1] (setting [13]), 18.0 ± 3.8 μm in series [1] (setting [20]), 17.2 ± 2.1 μm in series [1] (setting [14]) and 16.4 ± 2.8 μm in series [1] (setting [16]). Besides, the “Mean small pore diameter” value in series [1] (setting [17]) is 4.3 ± 0.8 μm; in series [1] (setting [9]) it was 4.5 ± 1.3 μm; in series [1] (setting [18]) it was 3.9 ± 0.4 μm; in series [1] (setting [10]) it was 5.5 μm and 5.5 ± 1.1 μm; in series [1] (setting [19]) it was 3.2 ± 0.5 μm; in series [1] (setting [11]) it was 1.5 μm and 1.5 ± 0.2 μm. Further, the “Mean small pore diameter” value in series [1] (setting [12]) is 5.9 ± 0.8 μm; in series [1] (setting [13]), 4.7 μm and 4.7 ± 1.0 μm; in series [1] (setting [20]), 3.0 ± 0.6 μm; in series [1] (setting [14]), 2.3 μm and 2.3 ± 0.4 μm; in series [1] (setting [15]) it was 7.1 μm and 7.1 ± 1.4 μm; in series [1] (setting [16]), 2.5 μm and 2.5 ± 0.6 μm. The Porosity amounted to 86.9 ± 2.6% in series [1] (setting [17]); 88.6 ± 1.4% in series [1] (setting [9]); 85.4 ± 2.2% in series [1] (setting [18]); 88.2 ± 2.9% in series [1] (setting [10]); 85.8 ± 2.9% in series [1] (setting [19]); 82.2 ± 3.3% in series [1] (setting [11]). Besides, the Porosity was 89.2 ± 0.8% in series [1] (setting [12]); 92.5% and 92.5 ± 1.0% in series [1] (setting [13]); 82.1 ± 1.6% in series [1] (setting [20]); 76.7% and 76.7 ± 2.5% in series [1] (setting [14]); 87.7 ± 2.0% in series [1] (setting [15]); 85.3 ± 1.2% in series [1] (setting [16]). Further, the Encapsulation efficiency is recorded as 89% in series [2] (HRP film, 0.5 w/w HRP); 87% in series [2] (HRP film, 1 w/w HRP, 17.5% w/v polymer (reference formulation A)); 86% in series [2] (HRP film, 2 w/w HRP); 90% in series [2] (HRP film, 15.5% w/v polymer); 85% in series [2] (HRP film, 25% w/v polymer).

On to `CC(=O)O[C@H]1C(=O)[C@@]2(C)[C@H]([C@H](OC(=O)c3ccccc3)[C@]3(O)C[C@H](OC(=O)[C@H](O)[C@@H](NC(=O)c4ccccc4)c4ccccc4)C(C)=C1C3(C)C)[C@]1(OC(C)=O)CO[C@@H]1C[C@@H]2O` [Paclitaxel], for which the Mean pore diameter in series [1] (setting [5]) worked out at 2.6 ± 0.8 μm; in series [1] (setting [21]) it was 0.6 ± 0.1 μm; in series [1] (setting [22]), 0.6 μm. For the same compound, the Porosity is reported as 81.5 ± 3.8% in series [1] (setting [5]) and 74.8 ± 3.2% in series [1] (setting [21]). Also, the Encapsulation efficiency is recorded as 52.8 ± 0.6% in series [2] (setting [5]); 53% in series [2] (drug-loaded 50:50 PDLGA 17.5% w/v film, no surfactant, 28 000 rpm, listed as paclitaxel); 35.6 ± 2.9% in series [2] (setting [21]); 35% in series [2] (setting [22]). For the same compound, the “effect of BSA (fine nanostructure) on burst effect” value in series [3] (setting [23]) is “did not significantly affect”. Also, the “effect of BSA (fine nanostructure) on release rate” value in series [3] (setting [23]) is “only a slight increase”.
